From paper PMC8562477

System: T1, MBP-RstA D52A D52A (Pseudomonas fluorescens 2P24), ORF:4a43b447
T1 sequence: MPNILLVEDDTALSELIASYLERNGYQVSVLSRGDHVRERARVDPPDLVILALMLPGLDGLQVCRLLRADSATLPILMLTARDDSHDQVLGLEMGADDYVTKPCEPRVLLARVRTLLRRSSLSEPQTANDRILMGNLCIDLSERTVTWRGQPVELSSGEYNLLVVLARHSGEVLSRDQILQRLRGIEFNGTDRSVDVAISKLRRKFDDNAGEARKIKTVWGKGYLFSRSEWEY
Experiment: EMSA
Settings: EMSA: 50 mM Tris-HCl pH 7.5, 10 mM MgCl2, 10% glycerol, 0.5 mM EDTA, 50 mM KCl, 3 uM BSA, 50 ng DNA in 20 ul, 30 min room temperature, 6% native PAGE

Sequence | binding
GGCAATAAACACCTCAATCAGGATGCGTCAGCAATGCGTAAGCATCAGCTGAACAAAATATGAGGCGACGTCTCTTGAAACGCGTCTCCGATCTATACAGGCCTTTGTCAGGCTTTTGTAAATCCGGATATTACGCAATTTGGCTGTTTACAAACAACCGTGTACGTAAGTATATTTCTTAGCATCCTACTAATTGAAAAAATGCTCCTTTTTTACCCTTCCACCTTTCGAGTGCGCCAGTTACGCGCCTGGACCCGAGGATTT (double strand) [FAM-emhA promoter] | binds more weakly
CGGCCTGTGTGATTACACAATTTCACAGAGCGCCTACAAAGCTTCACCCCTGTCATGGGCCTGGATCCCTACCATGAGCGGCTCAATATTGGGGAAGCACC (double strand) [FAM-mexC promoter] | binds more weakly
